Source: FireProtDB (doi:10.1021/bi012084+)

Conditions: Geobacillus stearothermophilus; pH 7.5; Thermal; DSC; KH2PO4/KOH 100 mM; reversible: no; whole UniProt chain shown

B1: Glyceraldehyde-3-phosphate dehydrogenase wild type, P00362 (protein)
chain: MAVKVGINGFGRIGRNVFRAALKNPDIEVVAVNDLTDANTLAHLLKYDSVHGRLDAEVSVNGNNLVVNGKEIIVKAERDPENLAWGEIGVDIVVESTGRFTKREDAAKHLEAGAKKVIISAPAKNEDITIVMGVNQDKYDPKAHHVISNASCTTNCLAPFAKVLHEQFGIVRGMMTTVHSYTNDQRILDLPHKDLRRARAAAESIIPTTTGAAKAVALVLPELKGKLNGMAMRVPTPNVSVVDLVAELEKEVTVEEVNAALKAAAEGELKGILAYSEEPLVSRDYNGSTVSSTIDALSTMVIDGKMVKVVSWYDNETGYSHRVVDLAAYIASKGL
**Q.** With B1 as the protein, how does the “unfolding enthalpy (calorimetric)” value read?
**A.** 408 kcal/mol
